Results as given in patent US6566505 (THOMAS JEFFERSON UNIVERSITY, dated 2003).
Ends that are not written are not given here.

How the values were obtained:
[1] = target: T1, wild type proMch6 (35S-labeled, in vitro translated)
T1 chain: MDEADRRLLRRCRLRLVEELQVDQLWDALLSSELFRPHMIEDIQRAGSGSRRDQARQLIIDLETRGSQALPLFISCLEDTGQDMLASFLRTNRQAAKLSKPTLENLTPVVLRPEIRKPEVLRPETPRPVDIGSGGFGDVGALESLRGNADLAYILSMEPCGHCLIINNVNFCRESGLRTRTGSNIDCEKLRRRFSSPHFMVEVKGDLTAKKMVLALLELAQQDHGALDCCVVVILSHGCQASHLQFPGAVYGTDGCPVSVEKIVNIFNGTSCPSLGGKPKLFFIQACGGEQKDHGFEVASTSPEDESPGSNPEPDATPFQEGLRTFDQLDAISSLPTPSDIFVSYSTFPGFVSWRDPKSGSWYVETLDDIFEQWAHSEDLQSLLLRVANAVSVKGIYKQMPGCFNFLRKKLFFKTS

[2] = target: T2, DEVD-AMC (Asp-Glu-Val-Asp-aminomethylcoumarin)
T2 chain: DEVD

[3] = target: T3, ZEVD-AMC (carbobenzoxy-Glu-Val-Asp-aminomethylcoumarin)
T3 chain: EVD

[4] = target: T4, YVAD-AMC (Tyr-Val-Ala-Asp-aminomethylcoumarin)
T4 chain: YVAD

[5] = target: T5, bacterially expressed recombinant Mch6 (6His-C terminal tagged protein) (human, UniProt P55211 1-416); experiment: inhibition of the hydrolysis of 50 µM DEVD-AMC by recombinant Mch6 after 30 min preincubation with DEVD-CHO, continuous fluorometric assay
T5 construct: also called purified Mch6 protein; mammalian ced-3 homolog 6; not shown: C-terminal 6His tag from vector pET21b
T5 chain: T1 chain

B1: purified recombinant human CPP32 (protein)
chain: SGISLDNSYKMDYPEMGLCIIINNKNFHKSTGMTSRSGTDVDAANLRETFRNLKYEVRNKNDLTREEIVELMRDVSKEDHSKRSSFVCVLLSHGEEGIIFGTNGPVDLKKITNFFRGDRCRSLTGKPKLFIIQACRGTELDCGIETDSGVDDDMACHKIPVEADFLYAYSTAPGYYSWRNSKDGSWFIQSLCAMLKQYADKLEFMHILTRVNRKVATEFESFSFDATFHAKKQIPCIVSMLTKELYFYH
[1]
  processing of 35S-labeled proMch6 (Tricine-SDS-PAGE and autoradiography): CPP32 cleaves proMch6 at one site to generate two cleavage products of approximately 37 kDa or p37 and approximately 10 kDa or p10

B2: bacterially expressed recombinant Mch6 (6His-C terminal tagged protein) (protein)
chain: T1 chain
[2]
  Km (DEVD-AMC): 10 µM
  Vmax/Km (DEVD-AMC): 100
[3]
  Vmax/Km (ZEVD-AMC): 2.7
[4]
  Vmax/Km (YVAD-AMC): < 0.1

B3: DEVD-CHO (Asp-Glu-Val-Asp-aldehyde) (peptide)
peptide: DEVD-aldehyde
notes: Tetrapeptide aldehyde substrate analog; also called DEVD-CHO peptide
[5]
  Ki: < 10 nM
